Data reported in the MegaScale stability set (Tsuboyama et al. 2023).

B1: HEEH_KT_rd6_3546 (parent)
chain: SEEDKEREHWERLNRDFELRVLDTTFIAHHAEEVIKLLRWLEK

Variants of: B1
Assay: folding stability dG (cDNA display proteolysis); higher = more stable
Conditions: PBS, room temperature
With SEEDKEREHWERLNRDFEPRVLDTTFIAHHAEEVIKLLRWLEK [L19P] the “folding stability dG” value was 3.61 kJ/mol.
With SEEDKEREHWERLNRDFEQRVLDTTFIAHHAEEVIKLLRWLEK [L19Q] the “folding stability dG” value was 3.44 kJ/mol.
With SEEDKEREHWERLNRDFERRVLDTTFIAHHAEEVIKLLRWLEK [L19R] the “folding stability dG” value was 5.05 kJ/mol.
For SEEDKEREHWERLNRDFESRVLDTTFIAHHAEEVIKLLRWLEK [L19S], the “folding stability dG” value was 3.33 kJ/mol.
In the case of SEEDKEREHWERLNRDFETRVLDTTFIAHHAEEVIKLLRWLEK [L19T], the “folding stability dG” value is reported as 3.33 kJ/mol.
With SEEDKEREHWERLNRDFEVRVLDTTFIAHHAEEVIKLLRWLEK [L19V] the “folding stability dG” value was 4.41 kJ/mol.
In the case of SEEDKEREHWERLNRDFEWRVLDTTFIAHHAEEVIKLLRWLEK [L19W], the “folding stability dG” value is reported as 6.23 kJ/mol.
In the case of SEEDKEREHWERLNRDFEYRVLDTTFIAHHAEEVIKLLRWLEK [L19Y], the “folding stability dG” value is reported as 4.75 kJ/mol.
In the case of SEEDKEREHWERLNRDFELAVLDTTFIAHHAEEVIKLLRWLEK [R20A], the “folding stability dG” value is reported as 4.35 kJ/mol.
In the case of SEEDKEREHWERLNRDFELCVLDTTFIAHHAEEVIKLLRWLEK [R20C], the “folding stability dG” value is reported as 9.92 kJ/mol.
In the case of SEEDKEREHWERLNRDFELDVLDTTFIAHHAEEVIKLLRWLEK [R20D], the “folding stability dG” value is reported as 4.92 kJ/mol.
In the case of SEEDKEREHWERLNRDFELEVLDTTFIAHHAEEVIKLLRWLEK [R20E], the “folding stability dG” value is reported as 3.43 kJ/mol.
With SEEDKEREHWERLNRDFELFVLDTTFIAHHAEEVIKLLRWLEK [R20F] the “folding stability dG” value was 9.27 kJ/mol.
With SEEDKEREHWERLNRDFELGVLDTTFIAHHAEEVIKLLRWLEK [R20G] the “folding stability dG” value was 5.41 kJ/mol.
With SEEDKEREHWERLNRDFELHVLDTTFIAHHAEEVIKLLRWLEK [R20H] the “folding stability dG” value was 5.82 kJ/mol.
With SEEDKEREHWERLNRDFELIVLDTTFIAHHAEEVIKLLRWLEK [R20I] the “folding stability dG” value was 8.34 kJ/mol.
With SEEDKEREHWERLNRDFELKVLDTTFIAHHAEEVIKLLRWLEK [R20K] the “folding stability dG” value was 5.69 kJ/mol.
In the case of SEEDKEREHWERLNRDFELLVLDTTFIAHHAEEVIKLLRWLEK [R20L], the “folding stability dG” value is reported as 8.05 kJ/mol.
In the case of SEEDKEREHWERLNRDFELMVLDTTFIAHHAEEVIKLLRWLEK [R20M], the “folding stability dG” value is reported as 6.81 kJ/mol.
For SEEDKEREHWERLNRDFELNVLDTTFIAHHAEEVIKLLRWLEK [R20N], the “folding stability dG” value was 5.15 kJ/mol.
For SEEDKEREHWERLNRDFELPVLDTTFIAHHAEEVIKLLRWLEK [R20P], the “folding stability dG” value was 2.86 kJ/mol.
In the case of SEEDKEREHWERLNRDFELQVLDTTFIAHHAEEVIKLLRWLEK [R20Q], the “folding stability dG” value is reported as 4.41 kJ/mol.
With SEEDKEREHWERLNRDFELSVLDTTFIAHHAEEVIKLLRWLEK [R20S] the “folding stability dG” value was 5.64 kJ/mol.
For SEEDKEREHWERLNRDFELTVLDTTFIAHHAEEVIKLLRWLEK [R20T], the “folding stability dG” value was 5.85 kJ/mol.
In the case of SEEDKEREHWERLNRDFELVVLDTTFIAHHAEEVIKLLRWLEK [R20V], the “folding stability dG” value is reported as 7.01 kJ/mol.
With SEEDKEREHWERLNRDFELWVLDTTFIAHHAEEVIKLLRWLEK [R20W] the “folding stability dG” value was 9.97 kJ/mol.
With SEEDKEREHWERLNRDFELYVLDTTFIAHHAEEVIKLLRWLEK [R20Y] the “folding stability dG” value was 10 kJ/mol.
In the case of SEEDKEREHWERLNRDFELRALDTTFIAHHAEEVIKLLRWLEK [V21A], the “folding stability dG” value is reported as 5.58 kJ/mol.
For SEEDKEREHWERLNRDFELRDLDTTFIAHHAEEVIKLLRWLEK [V21D], the “folding stability dG” value was 4.58 kJ/mol.
In the case of SEEDKEREHWERLNRDFELRELDTTFIAHHAEEVIKLLRWLEK [V21E], the “folding stability dG” value is reported as 4.42 kJ/mol.
With SEEDKEREHWERLNRDFELRFLDTTFIAHHAEEVIKLLRWLEK [V21F] the “folding stability dG” value was 7.18 kJ/mol.
With SEEDKEREHWERLNRDFELRGLDTTFIAHHAEEVIKLLRWLEK [V21G] the “folding stability dG” value was 6.25 kJ/mol.
In the case of SEEDKEREHWERLNRDFELRHLDTTFIAHHAEEVIKLLRWLEK [V21H], the “folding stability dG” value is reported as 5.12 kJ/mol.
With SEEDKEREHWERLNRDFELRILDTTFIAHHAEEVIKLLRWLEK [V21I] the “folding stability dG” value was 7.69 kJ/mol.
In the case of SEEDKEREHWERLNRDFELRKLDTTFIAHHAEEVIKLLRWLEK [V21K], the “folding stability dG” value is reported as 4.3 kJ/mol.
With SEEDKEREHWERLNRDFELRLLDTTFIAHHAEEVIKLLRWLEK [V21L] the “folding stability dG” value was 7.72 kJ/mol.
In the case of SEEDKEREHWERLNRDFELRMLDTTFIAHHAEEVIKLLRWLEK [V21M], the “folding stability dG” value is reported as 5.89 kJ/mol.
With SEEDKEREHWERLNRDFELRNLDTTFIAHHAEEVIKLLRWLEK [V21N] the “folding stability dG” value was 5.15 kJ/mol.
For SEEDKEREHWERLNRDFELRPLDTTFIAHHAEEVIKLLRWLEK [V21P], the “folding stability dG” value was 3.56 kJ/mol.
For SEEDKEREHWERLNRDFELRQLDTTFIAHHAEEVIKLLRWLEK [V21Q], the “folding stability dG” value was 5.43 kJ/mol.
With SEEDKEREHWERLNRDFELRRLDTTFIAHHAEEVIKLLRWLEK [V21R] the “folding stability dG” value was 5.91 kJ/mol.
With SEEDKEREHWERLNRDFELRSLDTTFIAHHAEEVIKLLRWLEK [V21S] the “folding stability dG” value was 4.86 kJ/mol.
For SEEDKEREHWERLNRDFELRTLDTTFIAHHAEEVIKLLRWLEK [V21T], the “folding stability dG” value was 5.3 kJ/mol.
For SEEDKEREHWERLNRDFELRWLDTTFIAHHAEEVIKLLRWLEK [V21W], the “folding stability dG” value was 8.16 kJ/mol.
With SEEDKEREHWERLNRDFELRYLDTTFIAHHAEEVIKLLRWLEK [V21Y] the “folding stability dG” value was 6.29 kJ/mol.
With SEEDKEREHWERLNRDFELRVADTTFIAHHAEEVIKLLRWLEK [L22A] the “folding stability dG” value was 4.44 kJ/mol.
With SEEDKEREHWERLNRDFELRVDDTTFIAHHAEEVIKLLRWLEK [L22D] the “folding stability dG” value was 3.64 kJ/mol.
With SEEDKEREHWERLNRDFELRVEDTTFIAHHAEEVIKLLRWLEK [L22E] the “folding stability dG” value was 2.6 kJ/mol.
In the case of SEEDKEREHWERLNRDFELRVFDTTFIAHHAEEVIKLLRWLEK [L22F], the “folding stability dG” value is reported as 5.96 kJ/mol.
In the case of SEEDKEREHWERLNRDFELRVGDTTFIAHHAEEVIKLLRWLEK [L22G], the “folding stability dG” value is reported as 6.18 kJ/mol.
With SEEDKEREHWERLNRDFELRVHDTTFIAHHAEEVIKLLRWLEK [L22H] the “folding stability dG” value was 3.45 kJ/mol.
For SEEDKEREHWERLNRDFELRVIDTTFIAHHAEEVIKLLRWLEK [L22I], the “folding stability dG” value was 6.42 kJ/mol.
In the case of SEEDKEREHWERLNRDFELRVKDTTFIAHHAEEVIKLLRWLEK [L22K], the “folding stability dG” value is reported as 3.76 kJ/mol.
For SEEDKEREHWERLNRDFELRVMDTTFIAHHAEEVIKLLRWLEK [L22M], the “folding stability dG” value was 5.44 kJ/mol.
With SEEDKEREHWERLNRDFELRVNDTTFIAHHAEEVIKLLRWLEK [L22N] the “folding stability dG” value was 4.45 kJ/mol.
For SEEDKEREHWERLNRDFELRVPDTTFIAHHAEEVIKLLRWLEK [L22P], the “folding stability dG” value was 4.14 kJ/mol.
In the case of SEEDKEREHWERLNRDFELRVQDTTFIAHHAEEVIKLLRWLEK [L22Q], the “folding stability dG” value is reported as 3.73 kJ/mol.
For SEEDKEREHWERLNRDFELRVRDTTFIAHHAEEVIKLLRWLEK [L22R], the “folding stability dG” value was 4.46 kJ/mol.
With SEEDKEREHWERLNRDFELRVSDTTFIAHHAEEVIKLLRWLEK [L22S] the “folding stability dG” value was 3.87 kJ/mol.
